# Results published in article PMC9209526 (Nature Communications, 2022).
# Tests used:
# [1] = biological target: T1, N4posAbl (Abl kinase domain with N-terminal KRKKSGG tag) (Homo sapiens, UniProt P00519); experiment: ClyA-AS nanopore tweezers single-channel current recording: ligand binding to N4posAbl
# T1 sequence (P00519 229-512): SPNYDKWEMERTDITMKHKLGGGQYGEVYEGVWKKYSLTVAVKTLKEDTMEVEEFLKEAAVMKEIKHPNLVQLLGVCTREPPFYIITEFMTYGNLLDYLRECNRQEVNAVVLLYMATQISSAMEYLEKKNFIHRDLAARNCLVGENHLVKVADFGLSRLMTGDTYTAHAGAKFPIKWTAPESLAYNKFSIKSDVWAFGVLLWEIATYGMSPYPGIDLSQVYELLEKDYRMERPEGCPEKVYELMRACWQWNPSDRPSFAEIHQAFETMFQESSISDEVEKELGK
# [2] = biological target: T2, N4posG321V (Abl kinase domain hinge mutant) (Homo sapiens, UniProt P00519, G321V); experiment: ClyA-AS nanopore tweezers single-channel current recording: ligand binding to N4posG321V
# T2 construct: His10-TEV (N, cleaved yes); made in house; host or cells: E. coli BL21(DE3)pLysS, co-expressed with YopH phosphatase
# T2 sequence (P00519 229-512 G321V): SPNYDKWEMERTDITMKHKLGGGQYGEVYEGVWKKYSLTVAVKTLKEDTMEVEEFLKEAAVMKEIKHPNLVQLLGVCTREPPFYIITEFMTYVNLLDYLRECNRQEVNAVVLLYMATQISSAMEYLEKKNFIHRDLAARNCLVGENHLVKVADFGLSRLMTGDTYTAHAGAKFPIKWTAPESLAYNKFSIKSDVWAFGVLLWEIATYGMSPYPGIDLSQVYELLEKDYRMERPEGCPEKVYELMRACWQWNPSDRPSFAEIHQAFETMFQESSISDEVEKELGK
# Abl kinase = details: read-out: reported KD of ATP; cited from earlier work
# [3] = biological target: T3, N4posAbl: wildtype Abl kinase domain (residues 229-512) with a positively charged peptide tail (N4pos tag, … (human, UniProt P00519 229-512)); experiment: ClyA nanopore tweezers (single-channel current recording); single Abl kinase molecule trapped in a ClyA-AS nanopore in a DPhPC bilayer; Abltide titrated with 10 mM MgCl2; occupancy of the bound state against concentration fitted with a single site binding model; -80 mV, 150 mM NaCl, 100 mM Tris-HCl, pH 7.5, 22 °C, ~100 nM kinase in cis; details: both partners purified
# T3 sequence (looked up): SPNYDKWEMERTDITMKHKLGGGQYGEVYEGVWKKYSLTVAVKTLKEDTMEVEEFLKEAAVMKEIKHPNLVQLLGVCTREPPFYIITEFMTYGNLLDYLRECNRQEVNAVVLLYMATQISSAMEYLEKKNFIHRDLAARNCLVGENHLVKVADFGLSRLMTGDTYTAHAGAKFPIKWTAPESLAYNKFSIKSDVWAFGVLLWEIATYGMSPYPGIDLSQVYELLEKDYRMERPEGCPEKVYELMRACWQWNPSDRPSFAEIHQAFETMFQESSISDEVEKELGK
# [4] = biological target: T4, N4posG321V: Abl kinase domain (residues 229-512) hinge mutant G321V with the N4pos tag (KRKKSGG) at its … (human, UniProt P00519 229-512, G321V); experiment: as above; details: both partners purified
# T4 construct: also called Abl G321V
# T4 sequence (looked up): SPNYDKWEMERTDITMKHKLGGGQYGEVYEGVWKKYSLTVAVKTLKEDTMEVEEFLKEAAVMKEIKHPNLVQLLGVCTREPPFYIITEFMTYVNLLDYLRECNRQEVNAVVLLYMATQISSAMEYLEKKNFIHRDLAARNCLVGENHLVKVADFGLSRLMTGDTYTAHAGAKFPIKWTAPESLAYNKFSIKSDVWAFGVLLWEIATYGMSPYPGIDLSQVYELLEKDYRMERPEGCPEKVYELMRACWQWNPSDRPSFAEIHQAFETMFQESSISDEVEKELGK
# [5] = biological target: T5, kinase substrate peptide Abltide (Homo sapiens, UniProt P00519); experiment: Enzyme-coupled Abl kinase assay (NADH consumption), Michaelis-Menten kinetics; format: biochemical
# T5 sequence (P00519 229-512): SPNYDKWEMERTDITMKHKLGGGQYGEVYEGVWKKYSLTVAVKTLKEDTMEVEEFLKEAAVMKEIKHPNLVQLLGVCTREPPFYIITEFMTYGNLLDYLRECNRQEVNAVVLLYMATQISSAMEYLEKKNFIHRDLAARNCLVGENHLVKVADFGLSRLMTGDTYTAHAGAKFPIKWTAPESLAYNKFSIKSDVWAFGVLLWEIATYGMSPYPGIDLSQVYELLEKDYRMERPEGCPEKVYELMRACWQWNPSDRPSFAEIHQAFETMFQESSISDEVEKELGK
# Description: (§1) Absorbance at 340 nm was monitored with a microtiter plate spectrophotometer (BioTek Synergy 2) for 30 min. The background kinase activity was determined in the reaction mix without the substrate peptide and subtracted from the experiments with the substrate peptide. To obtain the enzyme kinetics, initial phosphorylation rates at different substrate peptide concentrations (50~800 µM) were measured. Plots of the initial rate as a function of peptide substrate concentration were fit by nonlinear regression to obtain the Michaelis-Menten kinetic parameters.
# [6] = system: kinase substrate peptide Abltide; experiment: as above; format: biochemical; details: for Vmax / kcat: Abltide 50~800 µM, […] ATP, 30 nM kinase, 30 °C; for catalytic activity: Michaelis-Menten kinetic analysis
# Description: as §1
# [7] = Conformational state analysis of apo Abl kinases in ClyA-AS nanopore (S1/S2 and S1 sub-state dwell times, populations, rate constants, free energy); set-up: species or system human
molecule,measurement,setting,value
[Cl-].[Cl-].[Mg+2] [MgCl2],effect on N4posAbl current signal / conformational states,[1],did not trigger any noticeable change
ATP,effect on N4posG321V current trace,[2],did not trigger any change in the current trace
same,Kd,Abl kinase,69 ± 4 µM
KKGEAIYAAPFA (Abl substrate peptide Abltide) [kinase substrate peptide Abltide],Kd,[3],69.9 ± 13 µM
same,Kd,[4],257 ± 55.9 µM
Abl: wildtype Abl kinase domain (residue 229-512) (protein) SPNYDKWEMERTDITMKHKLGGGQYGEVYEGVWKKYSLTVAVKTLKEDTMEVEEFLKEAAVMKEIKHPNLVQLLGVCTREPPFYIITEFMTYGNLLDYLRECNRQEVNAVVLLYMATQISSAMEYLEKKNFIHRDLAARNCLVGENHLVKVADFGLSRLMTGDTYTAHAGAKFPIKWTAPESLAYNKFSIKSDVWAFGVLLWEIATYGMSPYPGIDLSQVYELLEKDYRMERPEGCPEKVYELMRACWQWNPSDRPSFAEIHQAFETMFQESSISDEVEKELGK,kcat,[5],7.1 ± 0.7 s⁻¹
same,Vmax,[6],12.8 ± 1.3 µM/min
same,kcat,[6],7.112 ± 0.717 s⁻¹
N4posAbl: Abl kinase domain with positively charged peptide tail KRKKSGG at its N-terminus (protein) SPNYDKWEMERTDITMKHKLGGGQYGEVYEGVWKKYSLTVAVKTLKEDTMEVEEFLKEAAVMKEIKHPNLVQLLGVCTREPPFYIITEFMTYGNLLDYLRECNRQEVNAVVLLYMATQISSAMEYLEKKNFIHRDLAARNCLVGENHLVKVADFGLSRLMTGDTYTAHAGAKFPIKWTAPESLAYNKFSIKSDVWAFGVLLWEIATYGMSPYPGIDLSQVYELLEKDYRMERPEGCPEKVYELMRACWQWNPSDRPSFAEIHQAFETMFQESSISDEVEKELGK,Vmax,[6],13.3 ± 1.1 µM/min
same,kcat,[6],7.395 ± 0.585 s⁻¹
same,catalytic activity,[6],no influence on the catalytic activity
same,τS1,"[7]; N4posAbl, pore #1, single S1 dwell events",443.75 ms
same,τS1,"[7]; N4posAbl, pore #3, single S1 dwell events",1114.75 ms
same,τS2,"[7]; N4posAbl, pore #3, single S2 dwell events",3255.5 ms
N4posG321V: N4posAbl hinge mutant G321V intended to enhance rigidity; catalytically inactive (protein) SPNYDKWEMERTDITMKHKLGGGQYGEVYEGVWKKYSLTVAVKTLKEDTMEVEEFLKEAAVMKEIKHPNLVQLLGVCTREPPFYIITEFMTYVNLLDYLRECNRQEVNAVVLLYMATQISSAMEYLEKKNFIHRDLAARNCLVGENHLVKVADFGLSRLMTGDTYTAHAGAKFPIKWTAPESLAYNKFSIKSDVWAFGVLLWEIATYGMSPYPGIDLSQVYELLEKDYRMERPEGCPEKVYELMRACWQWNPSDRPSFAEIHQAFETMFQESSISDEVEKELGK,catalytic activity,[6],abrogated the catalytic activity
same,τS1,"[7]; N4posG321V, 16 pores, single S1 dwell events",1005.56 ms
same,"τS1 (ms), 16 pores","[7]; N4posG321V, individual S1 dwell times, 16 pores",214.2 ms
